Target: the molecule itself
Assay: cross-linking; in vivo: intact 293T cells (WT; MIEF1/2/Mff-/-; overexpressing MIEF1-V5, MIEF2-V5 or Myc-Mff; or Drp1-/- transfected with untagged Drp1 for 18 h) with 1 mM DSS in PBS with Ca2+/Mg2+, time course or 3 h, room temperature, quenched with 50 mM Tris pH 7.5; reducing SDS-PAGE and Western blot

B1: untagged Drp1-4A (natural protein, human, UniProt O00429 1-736, looked up)
chain: MEALIPVINKLQDVFNTVGADIIQLPQIVVVGTQSSGKSSVLESLVGRDLLPRGTGIVTRRPLILQLVHVSQEDKRKTTGEENGVEAEEWGKFLHTKNKLYTDFDEIRQEIENETERISGNNKGVSPEPIHLKIFSPNVVNLTLVDLPGMTKVPVGDQPKDIELQIRELILRFISNPNSIILAVTAANTDMATSEALKISREVDPDGRRTLAVITKLDLMDAGTDAMDVLMGRVIPVKLGIIGVVNRSQLDINNKKSVTDSIRDEYAFLQKKYPSLANRNGTKYLARTLNRLLMHHIRDCLPELKTRINVLAAQYQSLLNSYGEPVDDKSATLLQLITKFATEYCNTIEGTAKYIETSELCGGARICYIFHETFGRTLESVDPLGGLNTIDILTAIRNATAAAAALFVPEVSFELLVKRQIKRLEEPSLRCVELVHEEMQRIIQHCSNYSTQELLRFPKLHDAIVEVVTCLLRKRLPVTNEMVHNLVAIELAYINTKHPDFADACGLMNNNIEEQRRNRLARELPSAVSRDKSSKVPSALAPASQEPSPAASAEADGKLIQDSRRETKNVASGGGGVGDGVQEPTTGNWRGMLKTSKAEELLAEEKSKPIPIMPASPQKGHAVNLLDVPVPVARKLSAREQRDCEVIERLIKSYFLIVRKNIQDSVPKAVMHFLVNHVKDTLQSELVGQLYKSSLLDDLLTESEDMAQRRKEAADMLKALQGASQIIAEIRETHLW
notes: human Drp1 isoform 1 with the four residues 401GPRP404 mutated to AAAA, untagged; Made by site-directed mutagenesis on untagged Drp1-WT; Copies: ~280 kDa cross-linked product said to correspond to tetramers; also called Drp1-4A mutant
stoichiometry N: 4
